Experimental data as given in US20190202925A1 (OPI VI IP HOLDCO, published 2019).

T1: soluble human TNFR2 (human, UniProt P20333 23-257)
T1 construct: also called soluble TNFR2
T1 sequence (looked up): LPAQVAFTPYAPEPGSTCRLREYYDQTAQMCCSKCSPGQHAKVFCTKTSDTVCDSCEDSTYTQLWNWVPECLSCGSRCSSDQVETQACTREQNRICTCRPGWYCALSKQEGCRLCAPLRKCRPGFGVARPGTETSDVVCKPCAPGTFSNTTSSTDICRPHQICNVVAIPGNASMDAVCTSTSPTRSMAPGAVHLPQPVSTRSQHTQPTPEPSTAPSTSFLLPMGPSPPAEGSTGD

T2: soluble cynomolgus TNFR2 (cynomolgus, UniProt A0A2K5VET2 132-366)
T2 sequence: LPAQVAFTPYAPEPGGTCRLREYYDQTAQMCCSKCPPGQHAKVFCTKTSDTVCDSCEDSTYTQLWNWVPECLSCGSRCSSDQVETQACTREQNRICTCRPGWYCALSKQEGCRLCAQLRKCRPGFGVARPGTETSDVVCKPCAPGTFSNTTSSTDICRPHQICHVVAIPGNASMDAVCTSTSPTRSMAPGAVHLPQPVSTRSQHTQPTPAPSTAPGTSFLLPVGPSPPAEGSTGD

T3: human TNFR2 on cells (human, UniProt P20333 23-461)
T3 construct: whole, on cells; also called TNFR2 on Jurkat clone H6; human TNFR2 on CD4+ and CD8+ T cells
T3 sequence (looked up): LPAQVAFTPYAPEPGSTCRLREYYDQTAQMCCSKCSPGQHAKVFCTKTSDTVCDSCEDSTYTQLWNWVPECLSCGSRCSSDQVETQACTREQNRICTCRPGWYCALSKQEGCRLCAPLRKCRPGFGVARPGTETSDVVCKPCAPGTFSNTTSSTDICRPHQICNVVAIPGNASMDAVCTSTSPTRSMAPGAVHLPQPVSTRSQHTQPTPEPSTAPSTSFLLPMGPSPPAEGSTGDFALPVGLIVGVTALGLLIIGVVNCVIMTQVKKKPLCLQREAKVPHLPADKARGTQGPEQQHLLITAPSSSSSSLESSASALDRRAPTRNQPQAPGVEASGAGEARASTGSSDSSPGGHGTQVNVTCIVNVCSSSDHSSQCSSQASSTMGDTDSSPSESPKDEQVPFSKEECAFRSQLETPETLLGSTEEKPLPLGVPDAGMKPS


Key:
soluble human TNFR2 = biological target: T1, soluble human TNFR2; test: competition ELISA: plate-bound soluble human TNFR2, competitor biotinylated TNFα, streptavidin-HRP, A450
Method: (§1) Soluble human TNFR2 (Sino Biological, 10417-H08H) or cynomolgus TNFR2 (Sino Biological, 90102-C08H) was coated on Nunc-Immuno™ plates at 0.1 μg/ml, 0.5 ug/ml, 1 μg/ml, and 5 μg/ml. […] Plates were developed using TMB and stopped with 3 M HCl.

soluble cynomolgus TNFR2 = biological target: T2, soluble cynomolgus TNFR2; test: competition ELISA: plate-bound soluble cynomolgus TNFR2, competitor biotinylated TNFα, streptavidin-HRP, A450
Method: as §1

human TNFR2 on cells = biological target: T3, human TNFR2 on cells; test: flow cytometry on human PBMC, antibody at 10 ug/mL, anti-human Fc-PE secondary
Method: The following day 0.3×10⁶ PBMC were counted and washed with PBS (Lonza). PBMCs were resuspended in Fixable Viability Stain 575V (BD) diluted 1:1,000 in PBS and incubated for 10 minutes. PBMCs were then washed twice in PBS to remove residual viability stain. PBMCs were then resuspended in Horizon Brilliant Stain Buffer (BD) with 10 uL per test of human Fc receptor binding inhibitor (eBioscience) and incubated on ice for 20 minutes to block Fc receptors. […] PBMCs were incubated 20 minutes on ice and then washed three times with 2% FBS PBS. To visualize TNFR chimeric antibody binding, PBMCs were resuspended in goat anti-human Fc-PE F(ab′)₂ secondary reagent (Jackson ImmunoResearch) diluted 1:200 in 2% FBS PBS and incubated on ice for 20 minutes. Cells were then washed three times in 2% FBS PBS and resuspended in 200 uL 2% FBS PBS for flow cytometry analysis using a BD FACS Celesta instrument and FACS Diva software. T cells were analyzed for chimeric TNFR2 binding by gating on viable cells defined as lymphocytes using forward and side scatter and as T cells by anti-CD3 staining. CD4⁺ and CD8⁺ subsets were identified by commercially available specific antibody conjugates.

IC50 (soluble human TNFR2)	IC50 (soluble cynomolgus TNFR2)	% CD4^+ ab^+ Donor 1 (human TNFR2 on cells)	% CD4^+ ab^+ Donor 2 (human TNFR2 on cells)	% CD8^+ ab^+ Donor 1 (human TNFR2 on cells)	% CD8^+ ab^+ Donor 2 (human TNFR2 on cells)	Binder
19.6 nM	16.7 nM	38.4%	26.4%	18.8%	16.1%	chimeric SBT-004 (antibody, V domains shown, VH fused to a human IgG1 Fc domain; also called chSBT-004) VH: EVQLQQSGPEVGRPGSSVKISCKASGYTFTDYIMHWVKQSPGQGLEWIGWVDPEYGSTDYAEKFKKKATLTADTSSNTAYIQLSSLTSEDTATYFCARDDGSYSPFDYWGQGVMVTVSS VL: DIQMTQSPPSLSASLGDKVTITCQASQNINKYIAWYQQKPGKAPRLLIRYTSTLESGTPSRFSGSGSGRDYSFSISNVESEDIASYYCLQYVNLLTFGAGTKLEIK
16.5 nM	15.6 nM	47.6%	38.3%	24.3%	18.9%	chimeric SBT-002 (antibody, V domains shown, also called chSBT-002) VH: QVTLKESGPGILQPSQTLSLTCSFSGFSLSTSGMGVGWIRQPSGKGLEWLAHIWWDDDKFYNPSLKSQLTISKDTSRNQVFLKLTSVVTADTATYYCARLTGTRYFDYWGQGTTLTVSS VL: DVQMTQSPSSLSASLGGKVTITCKASQDINKFIAWYQHKPGKGPRLLIHYTSTLQPGIPSKFSGSGSGRDYSFSISNLEPEDIATYYCLQYGNLWTFGGGTKLEIT
